Positions of bridges follow the written chain, without caps; N, C: chain ends. Chains are numbered I, II in the order given. No end group written: not given here.

In data set [1] the test system is T1, ψPDK peptide (ALSTER), non-TAT conjugated.
T1 sequence: ALSTER

The subject of data set [2] is ψPDK-Cs-sC-TAT (ψPDK linked to TAT47-57 by a disulfide bond).
Data set [3] deals with rat δPKC (endogenous, in perfused rat hearts) (rat) (UniProt P09215). Nature of the data set: cell-based or functional assay.
Chain of rat δPKC (endogenous, in perfused rat hearts) (rat) (P09215 whole entry, stated change not applied, the tested form may be a part): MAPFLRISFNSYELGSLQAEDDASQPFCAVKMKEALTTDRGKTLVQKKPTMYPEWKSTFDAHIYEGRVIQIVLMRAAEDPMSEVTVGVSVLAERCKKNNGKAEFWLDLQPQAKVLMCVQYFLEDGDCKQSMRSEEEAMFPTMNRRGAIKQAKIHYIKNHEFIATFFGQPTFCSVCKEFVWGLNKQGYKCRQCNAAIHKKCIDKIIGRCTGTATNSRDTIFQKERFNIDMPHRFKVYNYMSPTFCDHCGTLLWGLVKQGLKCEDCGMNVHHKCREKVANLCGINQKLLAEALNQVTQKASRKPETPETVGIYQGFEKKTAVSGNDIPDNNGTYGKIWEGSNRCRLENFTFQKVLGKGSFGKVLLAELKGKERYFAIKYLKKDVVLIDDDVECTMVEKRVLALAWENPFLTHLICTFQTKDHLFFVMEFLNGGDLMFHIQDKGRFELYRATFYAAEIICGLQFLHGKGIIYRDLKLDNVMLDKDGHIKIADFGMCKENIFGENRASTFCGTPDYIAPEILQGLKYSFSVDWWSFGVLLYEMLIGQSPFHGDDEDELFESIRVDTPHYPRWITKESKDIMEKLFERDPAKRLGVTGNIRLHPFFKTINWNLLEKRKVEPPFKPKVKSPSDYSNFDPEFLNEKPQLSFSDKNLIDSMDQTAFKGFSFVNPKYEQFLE
The target in data set [4] is rat δPKC (endogenous, in perfused rat hearts) (rat), P09215. Nature of the data set: cell-based or functional assay.
Chain of rat δPKC (endogenous, in perfused rat hearts) (rat), P09215 (P09215 whole entry, stated change not applied, the tested form may be a part): as above

Consider human recombinant δPKC (Invitrogen), for which, in data set [1], the “in vitro phosphorylation of Drp1 by δPKC” value is “ψPDK did not affect Drp1 phosphorylation” and the “δPKC phosphorylation of PDK (in vitro kinase assay)” value is “ψPDK inhibited δPKC phosphorylation of PDK by ˜30%”.
For “mouse δPKC (endogenous, in fibroblasts from wild-type mice)”, the “MARCKS phosphorylation in wild-type fibroblasts” value in data set [2] is on record as “increased MARCKS phosphorylation relative to the control peptide”.
In the case of p192 (AASTER), TAT-conjugated (peptide), in data set [3], the CPK (u/L) worked out at 1270 u/L and the p-JNK/total JNK turned out to be 0.7.
The corresponding values for p193 (ALATER), TAT-conjugated (peptide) are 1160 u/L and 0.7.
The like results for p194 (ALSAER), TAT-conjugated (peptide) were, in that order, 886 u/L and 0.6.
The like results for p195 (ALSTAR), TAT-conjugated (peptide) were, in that order, 913 u/L and 0.7.
As to p196 (ALSTEA), TAT-conjugated (peptide), in data set [3], the CPK (u/L) was determined as 926 u/L and the p-JNK/total JNK is 0.9.
The like results for “p197 (ALST(p)ER), TAT-conjugated (peptide)” were, in that order, 803 u/L and 0.7.
In data set [3], “p198 (ALS(p)TER), TAT-conjugated (peptide)” gave a CPK (u/L) of 1170 u/L and a p-JNK/total JNK of 0.9.
The like results for “p199 (ALS(p)T(p)ER), TAT-conjugated (peptide)” were, in that order, 842 u/L and 0.6.
Regarding “rat δPKC (endogenous, in perfused rat hearts)”, in data set [2], the “I/R-induced MARCKS phosphorylation in hearts” value was “an increase in I/R-induced MARCKS phosphorylation was observed in the presence of ψPDK, as compared with control peptide”; the “phosphorylation of PDK2 and of the E1 subunit of PDH after I/R (2-D IEF)” value is recorded as “the phosphorylation of those two enzymes (shown by a shift to acidic pH by 2-D IEF analysis) did not occur in the presence of either ψPDK or in the presence of δV1-1”.

B1: ψPDK-Cs-sC-TAT (ψPDK linked to TAT47-57 by a disulfide bond) (peptide)
peptide: ALSTERC-NH2
chain: YGRKKRRQRRRC-NH2
modifications: disulfide I:7-II:12; N-terminus assumed
SMILES: CC(C)C[C@H](NC(=O)[C@H](C)N)C(=O)N[C@@H](CO)C(=O)N[C@H](C(=O)N[C@@H](CCC(=O)O)C(=O)N[C@@H](CCCNC(=N)N)C(=O)N[C@@H](CSSC[C@H](NC(=O)[C@H](CCCNC(=N)N)NC(=O)[C@H](CCCNC(=N)N)NC(=O)[C@H](CCCNC(=N)N)NC(=O)[C@H](CCC(N)=O)NC(=O)[C@H](CCCNC(=N)N)NC(=O)[C@H](CCCNC(=N)N)NC(=O)[C@H](CCCCN)NC(=O)[C@H](CCCCN)NC(=O)[C@H](CCCNC(=N)N)NC(=O)CNC(=O)[C@@H](N)Cc1ccc(O)cc1)C(N)=O)C(N)=O)[C@@H](C)O
In data set [4], B1 registered a CPK (u/L) of 335 u/L, a p-JNK/total JNK of 0.4 and a δPKC association with the mitochondria after I/R of 2 fold.
